Results on 1 molecule are retold here after PMC10130016, “Millisecond cryo-trapping by the spitrobot crystal plunger simplifies time-resolved crystallography” (Nature Communications, 2023).

This assay deals with T1, Salmonella typhimurium tryptophan synthase TrpB subunit (Salmonella typhimurium, UniProt P0A2K1 1-397, pyridoxal 5'-phosphate (PLP) as internal aldimine; Lys87 named in the active site).
T1 construct: Tryptophan synthase beta chain (TrpB), Salmonella typhimurium; also called TS β-subunit
T1 sequence: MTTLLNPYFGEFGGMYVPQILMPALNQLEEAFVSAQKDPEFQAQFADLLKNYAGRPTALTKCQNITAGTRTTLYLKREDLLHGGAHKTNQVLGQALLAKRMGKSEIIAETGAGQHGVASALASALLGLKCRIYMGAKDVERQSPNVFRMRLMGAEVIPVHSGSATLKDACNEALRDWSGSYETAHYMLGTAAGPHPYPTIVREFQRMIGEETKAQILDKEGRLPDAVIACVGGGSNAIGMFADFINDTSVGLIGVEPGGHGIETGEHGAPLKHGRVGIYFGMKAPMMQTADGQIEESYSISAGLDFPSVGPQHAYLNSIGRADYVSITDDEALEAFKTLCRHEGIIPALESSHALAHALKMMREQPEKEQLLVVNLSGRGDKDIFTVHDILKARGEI
Description: crystal structure; TrpAB complex purified together; crystals from 17% (w/v) PEG 300, 0.1 M Tris-HCl pH 7.5, 20 mM cesium chloride, 18 °C, hanging drop; space group C 2, one TrpA and one TrpB in the asymmetric unit; cryo-trapped 0, 20, 25 and 30 s after LAMA mixing with indole, serine and G3P. The conditions noted are these: both partners purified.

B1: Salmonella typhimurium tryptophan synthase TrpA subunit (enzyme)
chain: MERYENLFAQLNDRREGAFVPFVTLGDPGIEQSLKIIDTLIDAGADALELGVPFSDPLADGPTIQNANLRAFAAGVTPAQCFEMLALIREKHPTIPIGLLMYANLVFNNGIDAFYARCEQVGVDSVLVADVPVEESAPFRQAALRHNIAPIFICPPNADDDLLRQVASYGRGYTYLLSRSGVTGAENRGALPLHHLIEKLKEYHAAPALQGFGISSPEQVSAAVRAGAAGAISGSAIVKIIEKNLASPKQMLAELRSFVSAMKAASRA
notes: Tryptophan synthase alpha chain (TrpA), Salmonella typhimurium; also called TS alpha subunit
On to B1, for which the binding result is reported as “binds”.
